Where no end group is shown, it is not given here.
B1: Peptide-52 (peptide)
peptide: ADWCPRDLWVHCFA
modifications: cysteine pairing not given here; also: biotinylated, site not given here
notes: CD28 peptide mask
B2: Peptide-59 (peptide)
peptide: HDWCPRDLWVHCFA
modifications: cysteine pairing not given here; also: biotinylated, site not given here
notes: CD28 peptide mask
B3: Peptide-58 (peptide)
peptide: GDWCPRDLWVHCFA
modifications: cysteine pairing not given here; also: biotinylated, site not given here
notes: CD28 peptide mask
B4: Peptide-54 (peptide)
peptide: NDWCPRDLWVHCFA
modifications: cysteine pairing not given here; also: biotinylated, site not given here
notes: CD28 peptide mask
B5: Peptide-55 (peptide)
peptide: DDWCPRDLWVHCFA
modifications: cysteine pairing not given here; also: biotinylated, site not given here
notes: CD28 peptide mask
B6: Phage-427 clonal phage peptide VILCPTTMWNRCFH (peptide)
peptide: VILCPTTMWNRCFH
notes: tested as crude clonal phage supernatant
B7: Phage-439 clonal phage peptide MDWCPRDRWDVCFA (peptide)
peptide: MDWCPRDRWDVCFA
notes: as for B6
B8: Phage-434 clonal phage peptide IVWCPTTQWNRCAT (peptide)
peptide: IVWCPTTQWNRCAT
notes: as for B6
B9: Phage-438 clonal phage peptide MDWCPMSRWAFCFD (peptide)
peptide: MDWCPMSRWAFCFD
notes: as for B6
B10: Phage-426 clonal phage peptide MFLCPSAMWNRCFY (peptide)
peptide: MFLCPSAMWNRCFY
notes: as for B6
B11: Phage-435 clonal phage peptide MDWCPRDRWVDCYA (peptide)
peptide: MDWCPRDRWVDCYA
notes: as for B6
B12: Phage-432 clonal phage peptide IDWCPIIQGLPCFA (peptide)
peptide: IDWCPIIQGLPCFA
notes: as for B6
B13: Phage-441 clonal phage peptide MDWCPRDRWDDCFF (peptide)
peptide: MDWCPRDRWDDCFF
notes: as for B6
B14: Phage-436 clonal phage peptide MDWCPRDRWADCFN (peptide)
peptide: MDWCPRDRWADCFN
notes: as for B6
B15: Phage-440 clonal phage peptide MDWCPRDRWVDCFN (peptide)
peptide: MDWCPRDRWVDCFN
notes: as for B6
B16: Phage-437 clonal phage peptide MDWCPVDRWADCFN (peptide)
peptide: MDWCPVDRWADCFN
notes: as for B6
B17: Phage-431 clonal phage peptide MAWCPADQWHECFN (peptide)
peptide: MAWCPADQWHECFN
notes: as for B6
B18: Phage-433 clonal phage peptide MAWCPWAQFDECLA (peptide)
peptide: MAWCPWAQFDECLA
notes: as for B6
B19: Phage-425 clonal phage peptide MDLCPTAMWNRCFY (peptide)
peptide: MDLCPTAMWNRCFY
notes: as for B6
B20: Phage-428 clonal phage peptide MNWCPSTMWNRCLT (peptide)
peptide: MNWCPSTMWNRCLT
notes: as for B6
B21: Phage-1736 (clonal phage displaying the peptide of SEQ ID NO: 2020) (peptide)
peptide: MEYCSFHRFTCVLW
notes: tested as crude phage supernatant
B22: Phage-1741 (clonal phage displaying the peptide of SEQ ID NO: 2037) (peptide)
peptide: FVPCIPSHWLCPIW
notes: as for B21
B23: Phage-1740 (clonal phage displaying the peptide of SEQ ID NO: 2024) (peptide)
peptide: PDCVYHSFWGYSCR
notes: as for B21
B24: Phage-1730 (clonal phage displaying the peptide of SEQ ID NO: 2014) (peptide)
peptide: FGHCAGSPVFCAYW
notes: as for B21
B25: Phage-1738 (clonal phage displaying the peptide of SEQ ID NO: 2022) (peptide)
peptide: ACHSLVLKHHLQKC
notes: as for B21
B26: Phage-1727 (clonal phage displaying the peptide of SEQ ID NO: 2011) (peptide)
peptide: HLFCWEGSDRCAWV
notes: as for B21
B27: Phage-1735 (clonal phage displaying the peptide of SEQ ID NO: 2019) (peptide)
peptide: EGCLTLVDGRAWCW
notes: as for B21
B28: Phage-1731 (clonal phage displaying the peptide of SEQ ID NO: 2015) (peptide)
peptide: NCFFAADIHWNFCT
notes: as for B21
B29: Phage-1737 (clonal phage displaying the peptide of SEQ ID NO: 2021) (peptide)
peptide: HCKFHDYHSWYMCY
notes: as for B21
B30: Phage-1739 (clonal phage displaying the peptide of SEQ ID NO: 2023) (peptide)
peptide: SCGWLRGEEFGWWC
notes: as for B21
B31: Phage-1723 (clonal phage displaying the peptide of SEQ ID NO: 2007) (peptide)
peptide: NCWWHDFRAGHVVC
notes: as for B21
B32: Phage-1725 (clonal phage displaying the peptide of SEQ ID NO: 2009) (peptide)
peptide: SIPCIPRDWLCPIK
notes: as for B21
B33: Phage-1728 (clonal phage displaying the peptide of SEQ ID NO: 2012) (peptide)
peptide: PLCGTEEVWWECRL
notes: as for B21
B34: Phage-1733 (clonal phage displaying the peptide of SEQ ID NO: 2017) (peptide)
peptide: FCGWMDGDVFWFCG
notes: as for B21
B35: Phage-1726 (clonal phage displaying the peptide of SEQ ID NO: 2010) (peptide)
peptide: ICQWIGATNAWVCY
notes: as for B21
B36: Phage-1729 (clonal phage displaying the peptide of SEQ ID NO: 2013) (peptide)
peptide: NAHCWLWVPAHCRV
notes: as for B21
B37: Phage-1724 (clonal phage displaying the peptide of SEQ ID NO: 2008) (peptide)
peptide: IRCVGEGHDLVCIF
notes: as for B21
B38: Phage-1734 (clonal phage displaying the peptide of SEQ ID NO: 2018) (peptide)
peptide: FCNWVDGDVWVVCK
notes: as for B21
B39: Phage-1732 (clonal phage displaying the peptide of SEQ ID NO: 2016) (peptide)
peptide: FCQWIEATNAWLCY
notes: as for B21

These binders were tested against Ab-15 (assay: binding ELISA: biotinylated peptide on neutravidin plate, Ab-15 titrated).

| Binder | EC50 [nM] |
| --- | --- |
| B1 | 75.9 |
| B2 | 45.4 |
| B3 | 73.9 |
| B4 | 84.3 |
| B5 | 86.8 |

What follows are binders tested against Ab-15 (assay: BLI (Octet): sensor loaded with 200 nM biotinylated peptide, 100 nM Ab-15;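 also: binding association and dissociation tracked in real time, fitted to a 1:1 binding model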).

| Binder | Octet signal | t1/2 [min] |
| --- | --- | --- |
| B1 | 0.7 | 3.1 |
| B2 | 0.737 | 3 |
| B3 | 0.479 | 3.9 |
| B4 | 0.434 | 4 |
| B5 | 0.461 | 4.2 |

These binders were tested against Ab-15 (assay: competition ELISA: peptide titrated against 1 nM Ab-15; competitor plate-bound CD28).

| Binder | IC50 [nM] |
| --- | --- |
| B1 | 2000 |
| B2 | 2180 |
| B3 | 7060 |
| B4 | 5030 |
| B5 | 4460 |

Each binder was assayed against T1, Anti-CD28 scFv (VH - linker 1 - VL) (biotinylated (site not stated)) (assay: phage ELISA; biotinylated anti-CD28 scFv on neutravidin plate, clonal phage supernatant, anti-M13-HRP detection;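 also: before phage addition, wells were pretreated with soluble CD28 protein in blocking buffer, or with blocking buffer only as the comparison, then phage were added without washing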).
T1 construct: Biotinylated and captured on neutravidin-coated plates in the phage panning ELISA

| Binder | CD28 scFv signal |
| --- | --- |
| B6 | 0.072 |
| B7 | 0.924 |
| B8 | 0.067 |
| B9 | 1 |
| B10 | 0.094 |
| B11 | 1.48 |
| B12 | 0.368 |
| B13 | 0.899 |
| B14 | 1.35 |
| B15 | 0.911 |
| B16 | 1.16 |
| B17 | 1.84 |
| B18 | 0.071 |
| B19 | 0.097 |
| B20 | 0.065 |

What follows are binders tested against T2, Anti-PSMA Fab (SEQ ID NOs: 19, 20) (assay: phage binding ELISA; biotinylated anti-PSMA Fab captured on neutravidin plate, clonal phage supernatant, anti-M13 HRP detection).
T2 construct: Biotinylated and captured on neutravidin coated plates in the phage ELISA; also called 006 PSMA Fab

| Binder | Anti-PSMA Fab (SEQ ID NOs: 19, 20) signal |
| --- | --- |
| B21 | 1.74 |
| B22 | 1.05 |
| B23 | 0.583 |
| B24 | 1.06 |
| B25 | 1.18 |
| B26 | 1.4 |
| B27 | 1.05 |
| B28 | 1.48 |
| B29 | 1.58 |
| B30 | 0.891 |
| B31 | 2.05 |
| B32 | 1.8 |
| B33 | 1.57 |
| B34 | 0.428 |
| B35 | 1.82 |
| B36 | 1.35 |
| B37 | 2.12 |
| B38 | 0.51 |
| B39 | 1.06 |

These binders were tested against T2, Anti-PSMA Fab (SEQ ID NOs: 19, 20) (assay: phage binding ELISA; Fab-coated wells pre-incubated with PSMA antigen (competitor: PSMA), then clonal phage, anti-M13 HRP detection).

| Binder | Anti-PSMA Fab signal in the presence of PSMA |
| --- | --- |
| B21 | 0.12 |
| B22 | 0.292 |
| B23 | 0.0641 |
| B24 | 0.054 |
| B25 | 0.0624 |
| B26 | 0.0753 |
| B27 | 0.0521 |
| B28 | 0.18 |
| B29 | 0.117 |
| B30 | 0.0625 |
| B31 | 0.0972 |
| B32 | 0.239 |
| B33 | 0.0694 |
| B34 | 0.145 |
| B35 | 0.326 |
| B36 | 0.0672 |
| B37 | 0.081 |
| B38 | 0.0607 |
| B39 | 0.119 |

The binders below were run against T1, Anti-CD28 scFv (VH - linker 1 - VL) (assay: phage ELISA; biotinylated anti-CD28 scFv on neutravidin plate, wells pre-incubated with soluble CD28 as competitor, anti-M13-HRP detection).

| Binder | CD28 scFv signal in presence of CD28 |
| --- | --- |
| B6 | 0.084 |
| B7 | 0.096 |
| B8 | 0.083 |
| B9 | 0.115 |
| B10 | 0.114 |
| B11 | 0.403 |
| B12 | 0.065 |
| B13 | 0.183 |
| B14 | 0.08 |
| B15 | 0.132 |
| B16 | 0.315 |
| B17 | 0.456 |
| B18 | 0.078 |
| B19 | 0.084 |
| B20 | 0.07 |

From patent publication US20260242478A1 (published 2026)
